This is an account of results in paper PMC2193914.

The target in this test is rat KLRE1-HA (short splice variant), in transiently transfected 293T cells (rat) (UniProt Q80ZC8). Briefly: SDS-PAGE under nonreducing and reducing conditions with Western blot.

Take “rat KLRE1-HA (short splice variant), in transiently transfected 293T cells (from UniProt Q80ZC8 1-226) (receptor)”: the stoichiometry N was 2.
